Source: patent US20160030544A1

Molecular target: fH6-7 (factor H CCP domains 6-7) (UniProt P08603)
Assay: SPR, Biacore 3000, protein on CM5 chip, fH6-7 as analyte

fH6-7 (factor H CCP domains 6-7), sequence (P08603 321-443 limits assumed): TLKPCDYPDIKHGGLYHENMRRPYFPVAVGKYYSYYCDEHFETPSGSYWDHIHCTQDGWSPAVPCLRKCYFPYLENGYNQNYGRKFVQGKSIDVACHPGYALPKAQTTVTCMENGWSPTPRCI

In the case of “V3.45 fHbp (variant 3 factor H binding protein of N. meningitidis), recombinant wild type”, the Kd is reported as 1 nM.
